For two substances, percent of the protease labeled after 15 min results are on record in publication PMC7112362.

This experiment has as its target MERS-CoV papain-like cysteine protease (PLpro), His-tagged (MERS-CoV). In words: activity-based probe labelling.

The substance “K48-linked diUb "in-between" activity-based probe (from UniProt P0CG47 1-75; P0CG47 1-76)” gave a percent of the protease labeled after 15 min of 50%. As for “K48-linked diUb "proximal" activity-based probe (from UniProt P0CG47 1-75; P0CG47 1-75)”, the percent of the protease labeled after 15 min came out at 50%.
